Laboratory results reported in publication PMC8699718, “A structurally conserved site in AUP1 binds the E2 enzyme UBE2G2 and is essential for ER-associated degradation” (PLoS Biology, 2021).

T1: UBE2G2 (Homo sapiens, UniProt P60604)
T1 construct: made in house
T1 sequence (P60604 1-165): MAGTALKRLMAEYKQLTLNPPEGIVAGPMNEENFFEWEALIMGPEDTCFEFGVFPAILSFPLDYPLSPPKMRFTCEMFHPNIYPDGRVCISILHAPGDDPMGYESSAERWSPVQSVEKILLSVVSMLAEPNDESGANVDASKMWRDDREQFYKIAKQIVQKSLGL

T2: UBE2G2:G2BR^AUP1 complex (UniProt P60604 1-165, ^15N-labeled)
T2 construct: UBE2G2, as m15; AUP1 G2BR, residues 378-404, as m16; Complex formed before titration with the gp78 RING; also called G2BR^AUP1:UBE2G2
T2 sequence 1: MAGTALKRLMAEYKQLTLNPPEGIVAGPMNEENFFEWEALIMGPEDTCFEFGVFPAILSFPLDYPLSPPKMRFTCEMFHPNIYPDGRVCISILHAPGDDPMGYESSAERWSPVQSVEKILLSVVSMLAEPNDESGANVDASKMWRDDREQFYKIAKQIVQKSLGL
T2 sequence 2: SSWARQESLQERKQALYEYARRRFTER

T3: UBE2G2:G2BR^gp78 complex (UniProt P60604 1-165, ^15N-labeled)
T3 construct: UBE2G2, as m15; N-terminal Trp residue added for peptide quantification, as m17; gp78 G2BR, residues 574-600, as m17; Complex formed before titration with the gp78 RING; also called G2BR^gp78:UBE2G2
T3 sequence 1: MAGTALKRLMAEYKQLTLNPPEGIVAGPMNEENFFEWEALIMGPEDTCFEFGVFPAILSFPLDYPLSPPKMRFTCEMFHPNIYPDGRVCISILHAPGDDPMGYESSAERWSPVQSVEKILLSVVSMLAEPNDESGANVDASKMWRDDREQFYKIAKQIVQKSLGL
T3 sequence 2: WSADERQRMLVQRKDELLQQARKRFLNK

T4: purified UBE2G2 (UniProt P60604 1-165, ^15N-labeled for NMR)
T4 construct: UBE2G2, purified recombinant protein used for ITC, FP, MST and NMR; also called apo-UBE2G2; ^15N-labeled UBE2G2
T4 sequence (looked up): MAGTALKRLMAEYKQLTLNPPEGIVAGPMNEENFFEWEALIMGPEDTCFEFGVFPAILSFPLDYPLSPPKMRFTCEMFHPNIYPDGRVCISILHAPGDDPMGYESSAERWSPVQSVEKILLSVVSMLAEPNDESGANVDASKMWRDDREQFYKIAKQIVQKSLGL

B1: GST fusion of AUP1: GST fusion of AUP1 that includes the G2BR (protein)
chain: SPDVQLATLAQRVKEVLPHVPLGVIQRDLAKTGCVDLTITNLLEGAVAFMPEDITKGTQSLPTASASKFPSSGPVTPQPTALTFAKSSWARQESLQERKQALYEYARRRFTERRAQEAD
modifications: left off: GST, end not stated, kept
notes: GST fusion of AUP1 that includes the G2BR
B2: gp78 RING domain (domain or fragment, UniProt Q9UKV5 313-393, looked up)
chain: KNYLRVVGNMEARFAVATPEELAVNNDDCAICWDSMQAARKLPCGHLFHNSCLRSWLEQDTSCPTCRMSLNIADNNRVREE
notes: gp78 (aka AMFR or RNF45), RING domain; the limits 313-393 are those of the only gp78-RING construct that the methods name; also called gp78-RING construct (aa 313 to 393)

Columns and labels:
UBE2G1 = experiment: GST pulldown of in vitro translated 35S-UBE2G1; format: binding; conditions: GST-AUP1 aa 292 to 410, overnight 4°C, pH 7.4
Description: (§1) Fig 3 The AUP1–UBE2G2 interaction is required for ERAD. (A) Equimolar amounts of GST-AUP1 (aa 292 to 410) or GST were immobilized on glutathione beads and binding to the indicated in vitro translated ^35S-labeled E2s was assessed. Left panel is 5% of input used for binding. E2s are referred to by their unique alpha-numeric designation (e.g., UBE2G1 and UBE2J1). (B) HT1080 or UBE2G2 KO cells were transfected with INSIG-1-MYC and degradation assessed by CHX chase. […] (D) Cells were transfected with NHK-MYC and HA-ubiquitin and ubiquitination of NHK assessed following proteasome inhibition and IP (right panel). Left panel is 10% of total cell lysate used for IP, indicating no discernable change in total ubiquitination. (E) Levels of endogenous HRD1 were monitored by CHX chase in the indicated cell types. (F) Ubiquitination of endogenous HRD1 was assessed following IP with HRD1 antiserum. Arrow in upper panel indicates migration of unmodified HRD1. Control immunoprecipitates using rabbit serum are shown for comparison. […]
(§2) In vitro translated ^35S methionine-labeled E2s were generated using the E. coli T7-S30 Extract System (Promega) and excess ^35S methionine was removed by desalting twice with Zeba Spin Desalting Columns (Thermo Scientific). GST fusion proteins were quantified by Coomassie blue staining. […] Binding was quantified using ImageQuant Software.

UBE2J1/UBC6e = experiment: GST pulldown of in vitro translated 35S-UBE2J1; format: binding; conditions: GST-AUP1 aa 292 to 410, overnight 4°C, pH 7.4
Description: as §1, §2

UBE2D3/UBCH5C = experiment: GST pulldown of in vitro translated 35S-UBE2D3; format: binding; conditions: GST-AUP1 aa 292 to 410, overnight 4°C, pH 7.4
Description: as §1, §2

UBE2G2 = molecular target: T1, UBE2G2; experiment: GST pulldown of in vitro translated 35S-UBE2G2; format: binding; conditions: GST-AUP1 aa 292 to 410 on glutathione beads, ~3 pmol GST fusion, ~0.2 pmol E2, overnight 4°C, pH 7.4
Description: Fig 3 The AUP1–UBE2G2 interaction is required for ERAD. (A) Equimolar amounts of GST-AUP1 (aa 292 to 410) or GST were immobilized on glutathione beads and binding to the indicated in vitro translated ^35S-labeled E2s was assessed. Left panel is 5% of input used for binding. E2s are referred to by their unique alpha-numeric designation (e.g., UBE2G1 and UBE2J1). (B) HT1080 or UBE2G2 KO cells were transfected with INSIG-1-MYC and degradation assessed by CHX chase. […] (D) Cells were transfected with NHK-MYC and HA-ubiquitin and ubiquitination of NHK assessed following proteasome inhibition and IP (right panel). Left panel is 10% of total cell lysate used for IP, indicating no discernable change in total ubiquitination. (E) Levels of endogenous HRD1 were monitored by CHX chase in the indicated cell types. (F) Ubiquitination of endogenous HRD1 was assessed following IP with HRD1 antiserum. Arrow in upper panel indicates migration of unmodified HRD1. Control immunoprecipitates using rabbit serum are shown for comparison. The data underlying this figure can be found in S1 Data. aa, amino acid; AUP1, ancient ubiquitous protein 1; CHX, cycloheximide; ERAD, endoplasmic reticulum–associated degradation; IP, immunoprecipitation; KO, knockout; WT, wild type.
Fig 6 Disruption of UBE2G2:G2BR^AUP1 interaction abrogates AUP1 function in cells. (A) GST or indicated GST-AUP1 fusions (aa 292 to 410, expression shown in Coomassie-stained gel) were immobilized on glutathione beads and binding to ^35S-UBE2G2 was assessed as in Fig 3A. Mutations include 2A (R382A/Q383A), 2E (R382E/Q383E), and 5E (R382E/Q383E/K390E/R398E/R400E). (B) AUP1 KO cells were transfected with NHK-HA and forms of full-length AUP1-FLAG with the indicated point mutations from (A) and NHK degradation assessed by CHX chase. (C) Binding assay performed as in (A) with AUP1 mutants predicted to disrupt hydrophobic interactions with UBE2G2. (D) Cellular assay performed as in (B) with AUP1-FLAG mutants that disrupt interactions with UBE2G2 in vitro in (C). The data underlying this figure can be found in S1 Data. aa, amino acid; AUP1, ancient ubiquitous protein 1; CHX, cycloheximide; G2BR, UBE2G2 Binding Region; KO, knockout; WT, wild type.
In vitro translated ^35S methionine-labeled E2s were generated using the E. coli T7-S30 Extract System (Promega) and excess ^35S methionine was removed by desalting twice with Zeba Spin Desalting Columns (Thermo Scientific). GST fusion proteins were quantified by Coomassie blue staining. Moreover, 0.1 μg of GST fusion protein (approximately 3 pmol) was prebound to GS 4B (GE Healthcare) and then incubated with approximately 10^5 cpm of ^35S methionine-labeled E2 (approximately 0.2 pmol) in 200 μl Binding Buffer (25 mM Tris-HCl, pH 7.4, 50 mM NaCl, 5 mM DTT, 0.5% IGEPAL CA-630) overnight at 4°C. Beads were extensively washed in Binding Buffer, resolved on Bis/Tris polyacrylamide gels under reducing conditions, dried and visualized on a Typhoon FLA 7000 (GE Healthcare). Binding was quantified using ImageQuant Software.

UBE2D2/UBCH5B = experiment: GST pulldown of in vitro translated 35S-UBE2D2; format: binding; conditions: GST-AUP1 aa 292 to 410, overnight 4°C, pH 7.4
Description: as §1, §2

UBE2G2:G2BR^AUP1 complex = molecular target: T2, UBE2G2:G2BR^AUP1 complex; experiment: NMR titration; ^1H-^15N HSQC of ^15N-labeled UBE2G2 at 150 μM, alone or bound to G2BR peptide, titrated with gp78 RING 0 to 450 μM; chemical shift perturbations fitted; 50 mM Tris-Cl pH 7.0, 0.5 mM TCEP, 100 μM zinc sulfate; conditions: both partners purified
UBE2G2:G2BR^gp78 complex = molecular target: T3, UBE2G2:G2BR^gp78 complex; experiment: as above; conditions: both partners purified
purified UBE2G2 = molecular target: T4, purified UBE2G2; experiment: as above; conditions: both partners purified

Molecule | binding to UBE2G1 (UBE2G1) | binding to UBE2J1 (UBE2J1/UBC6e) | binding to UBE2D3 (UBE2D3/UBCH5C) | binding to UBE2G2 (UBE2G2) | binding to UBE2D2 (UBE2D2/UBCH5B) | Kd (UBE2G2:G2BR^AUP1 complex) | Kd (UBE2G2:G2BR^gp78 complex) | Kd (purified UBE2G2)
B1 | not UBE2G1 | failed to show detectable binding | no discernable binding | bound UBE2G2 | no discernable binding |  |  | 
B2 |  |  |  |  |  | 22.5 µM | 20.3 µM | 207 ± 6.4 µM
